Assay results taken from patent US8252737B2, “Antimicrobial peptides and methods of use” (priority 2004, dated 2012).
≈ marks a conversion by molar mass, not a printed value. Square brackets hold non-standard residues; d marks the D form. Ends that are not written are not given here.

Assays:
human erythrocytes = test: Hemolytic activity (MHC), Protocol B, 18 hours; conditions: maximal peptide concentration showing no hemolysis after 18 hours, hRBC, Table 14
Experimental: In order to evaluate the biological activities of the D-enantiomeric peptides, namely D-NAL and D-NKD, the hemolytic activity of the peptides against human erythrocytes was determined as the maximal peptide concentration that produces no hemolysis after 18 hours of incubation at 37° C.
Measurement of Hemolytic Activity—Protocol A: Peptide samples were added to 1% human erythrocytes in phosphate buffered saline (0.08M NaCl; 0.043M Na2PO4; 0.011M KH2PO4) and reactions were incubated at 37° C. for 12 hours in microtiter plates. Peptide samples were diluted 2 fold in order to determine the concentration that produced no hemolysis. […] Hemoglobin release was determined spectrophotometrically at 562 nm. The hemolytic titer was the highest 2-fold dilution of the peptide that still caused release of hemoglobin from erythrocytes. The control for no release of hemoglobin was a sample of 1% erythrocytes without any peptide added. […] Peptide samples were diluted 2 fold in order to determine the concentration that produced no hemolysis. […] Hemoglobin release was determined spectrophotometrically at 570 nm. The hemolytic titer was the highest 2-fold dilution of the peptide that still caused release of hemoglobin from erythrocytes. The control for no release of hemoglobin was a sample of 1% erythrocytes without any peptide added.

[1] = tested on: Pseudomonas aeruginosa strains
Experimental: Pseudomonas aeruginosa strains used in this study are a diverse group of clinical isolates from different places in the world. […] The geometric mean MIC values from six Pseudomonas aeruginosa strains were calculated to provide an overall evaluation of antimicrobial activity of these peptides against Pseudomonas aeruginosa. Fold improvement was calculated by comparing the geometric mean MIC value of each peptide to that of the parent peptide V681.
Measurement of Antimicrobial Activity—Minimal inhibitory concentrations (MICs) were determined using a standard microtiter dilution method in LB (Luria-Bertani) no-salt medium (10 g of tryptone and 5 g of yeast extract per liter). Briefly, cells were grown overnight at 37° C. in LB and diluted in the same medium. […] Plates were incubated at 37° C. for 24 hours and MICs determined as the lowest peptide concentration that inhibited growth. Alternatively, minimal inhibitory concentrations were determined using a standard microtiter dilution method in a Mueller-Hinton (MH) medium. Briefly, cells were grown overnight at 37° C. in MH broth and diluted in the same medium. […] Plates were incubated at 37° C. for 24 hours and MICs determined as the lowest peptide concentration that inhibited growth. However, for MIC determination of Pseudomonas aeruginosa clinical isolates, brain heart infusion (BH1) medium was used instead of MH broth. In addition, the bacteria were diluted to a final inoculum of 1×10^6 colony-forming units/ml.
For the Leu-substituted peptides, the hemolytic activity against human erythrocytes was determined as the maximal peptide concentration that produces no hemolysis after 18 hours of incubation at 37° C. Antimicrobial activity of the peptides was determined on a diverse group of Pseudomonas aeruginosa clinical isolates. […] The geometric mean MIC values from six Pseudomonas strains in Table 14 were calculated to provide an overall evaluation of antimicrobial activity of the peptides with different hydrophobicities.

[2] = RP-HPLC temperature profiling (hydrophobicity and self-association/dimerization parameter PA); format: physicochemical; conditions: for tR (min) 5° C.: RP-HPLC retention time at 5° C. during temperature profiling (measure of hydrophobicity); for tR (min) 80° C.: RP-HPLC retention time at 80° C. during temperature profiling; for tR (min) Max: maximal RP-HPLC retention time during temperature profiling 5-80° C.; for PA (min) association parameter: maximal retention time difference relative to control peptide C within 5-80° C.; for overall hydrophobicity change relative to PVL: RP-HPLC retention time difference at 80° C.; for overall hydrophobicity change relative to PVL / ΔtR (X-PSL) (min) 5° C. / ΔtR (X-PSL) (min) 80° C.: polar face substitutions; for ΔtR (X-PSL) (min) 5° C.: retention time difference relative to native peptide V681 (PSL) at 5° C.; for ΔtR (X-PSL) (min) 80° C.: retention time difference relative to native peptide V681 (PSL) at 80° C.
Experimental: The retention time data for the peptides is shown in Table 5 which records retention times at 5° C., the maximal retention times and retention times at 80° C. during the temperature profiling. Temperatures of 5° C. and 80° C. were the lower and upper temperature limits of temperature profiling in RP-HPLC, representing dimerization of the peptides at 5° C. and the monomerization of peptides at 80° C. due to dissociation of the dimers. The maximal retention times represent the threshold points at which peptides transform from dimeric to monomeric form. Among the non-polar face substituted peptides, peptides with more hydrophobic substitutions (whether L- or D-amino acid substitutions) were more retained during RP-HPLC, i.e., peptides were eluted in the order of Lys, Gly, Ser, Ala, Val and Leu (Table 5). In addition, on the non-polar face, the L-analogs were always more retained than the D-diastereomers (Table 5, FIG. 5). […] In contrast, on the polar face, the elution order of peptides was not correlated with the order of amino acid side-chain hydrophobicity, e.g., PAL and PSL were more retained than PVL (Table 5); PSD was the most retained peptide among the D-amino acid substituted analogs on the polar face (Table 5).
The ability of the D-peptides to self-associate was determined by RP-HPLC temperature profiling. […] As expected, L- and D-peptide enantiomers were totally inseparable over this temperature range, since each pair of peptides is identical in sequence and must adopt identical conformations on interacting with the reversed-phase matrix, whether in an all-L- or all-D-conformation. RP-HPLC retention behavior has been frequently utilized to represent overall peptide hydrophobicity (53, 26). In the present study, the hydrophobicity of the three peptide pairs is in the order V681/D-V681>[…]>NKL/D-NKD (Table 4), which agrees with the change in hydrophobicity of the substitutions at position 13 in order of the most hydrophobic to the least hydrophobic amino acid residue (Val in V681>Ala in NA>Lys in NK) (54). […] For example, the retention times of peptides V681/D-V681 increase with increasing temperature (up to ˜30° C.) followed by a retention time decrease with a further temperature increase. […] Since peptide C is a monomeric random coil peptide in both aqueous and hydrophobic media, its retention behavior over the temperature range 5° C. to 80° C. represents only general temperature effects on peptide retention behavior, i.e., a linear decrease in peptide retention time with increasing temperature due to greater solute diffusivity and enhanced mass transfer between the stationary and mobile phases at higher temperatures (55). Thus, after normalization to the retention times of peptide C, the retention behavior of the peptides represents only peptide self-association ability. Note that the higher the PA value, the greater the self-association ability. […] From Table 4, it is also clear that the peptide retention times at 80° C. are dramatically lower than those at 5° C.
Elution times during RP-HPLC have frequently been utilized as a measure of relative hydrophobicity of peptide analogs (26, 31). In the current study, peptide analogs differed only by a single amino acid substitution on either the non-polar face or the polar face of V681; thus, the retention time data in Table 5 can be considered to reflect the hydrophobicity difference between peptide analogs. In order to more easily visualize the variation in hydrophobicity of the peptide analogs, the retention time data in Table 5 were normalized relative to that of the native peptide V681 at 5° C. and 80° C., respectively. Hydrophobicity relative to the native peptide V681 indicates an increase or decrease of the apparent peptide hydrophobicity with the different amino acid substitutions on the polar or non-polar face. […]

[3] = Circular dichroism spectroscopy of helical structure (benign buffer and 50% TFE); format: physicochemical; conditions: 25° C.; for % helix 50% TFE / % helix Benign: relative to NAL in 50% TFE; for [θ]222 Benign: benign buffer (100 mM KCl, 50 mM PO4 pH 7.0); for [θ]222 50% TFE: benign buffer diluted 1:1 (v/v) with TFE; for % helix Benign: benign buffer
Experimental: To determine the secondary structure of peptides in different environments, circular dichroism (CD) spectra of the peptide analogs were measured under physiologically related pH and ionic strength (100 mM KCl, 50 mM aq. PO4, pH 7 referred to as benign conditions) and also in 50% TFE to mimic the hydrophobic environment of the membrane. […] On the non-polar face, the native L-Val residue was critical in maintaining α-helical structure. […] Even the substitution with L-Ala, which is known to have the highest α-helical propensity of all 20 amino acids (34), could not stabilize the α-helical structure. […] It is noteworthy that, on the non-polar face, the magnitude of the helical content of L-peptides in benign buffer was related to the hydrophobicity of the substituting amino acids, i.e., NLL>NVL>NAL>NSL, NKL, again showing the importance of hydrophobicity on the non-polar face in maintaining the α-helical structure. […] However, whether L- or D-substitutions were made on the non-polar face, high helical structure could be induced by the hydrophobic environment of 50% TFE, a mimic of the membrane's hydrophobicity and α-helix inducing ability (Table 3).
To determine the secondary structure of the D-enantiomeric peptides in different environments, CD spectra of the peptide analogs were measured under benign conditions (100 mM KCl, 50 mM KH2PO4/K2HPO4, pH 7.4, referred to as KP buffer) and also in 50% trifluoroethanol (TFE) to mimic the hydrophobic environment of the membrane. […] However, in the presence of 50% TFE, all three L-peptides were fully folded α-helical structures with similar ellipticities and helicity (Table 4).
Characterization of Helical Structure—The mean residue molar ellipticities of peptides were determined by circular dichroism (CD) spectroscopy, using a Jasco J-720 spectropolarimeter (Jasco, Easton, Md.), at 25° C. under benign conditions (50 mM KH2PO4/K2HPO4/100 mM KCl, pH 7), as well as in the presence of an α-helix inducing solvent, 2,2,2-trifluoroethanol (TFE) (50 mM KH2PO4/K2HPO4/100 mM KCl, pH 7 buffer/50% TFE). A 10-fold dilution of a ˜500 μM stock solution of the peptide analogs was loaded into a 0.02 cm fused silica cell and its ellipticity scanned from 190 to 250 nm. The values of molar ellipticities of the peptide analogs at a wavelength of 222 nm were used to estimate the relative α-helicity of the peptides.

Molecule | tR (min) 5° C. [2] | tR (min) 80° C. [2] | tR (min) Max [2] | PA (min) association parameter [2] | % helix 50% TFE [3] | [θ]222 Benign [3] | [θ]222 50% TFE [3] | % helix Benign [3] | overall hydrophobicity change relative to PVL [2] | ΔtR (X-PSL) (min) 5° C. ([2]; relative hydrophobicity) | ΔtR (X-PSL) (min) 80° C. ([2]; relative hydrophobicity) | also measured
CC[C@H](C)[C@H](NC(=O)[C@H](CC(C)C)NC(=O)[C@H](CCCCN)NC(=O)[C@H](CC(C)C)NC(=O)[C@H](C)NC(=O)[C@@H](NC(=O)[C@H](Cc1c[nH]cn1)NC(=O)[C@H](CC(C)C)NC(=O)[C@@H](NC(=O)[C@@H](NC(=O)[C@H](CCCCN)NC(=O)[C@H](CCCCN)NC(=O)[C@H](CC(C)C)NC(=O)[C@H](CO)NC(=O)[C@H](CCCCN)NC(=O)[C@H](Cc1ccccc1)NC(=O)[C@@H](NC(=O)[C@H](CCCCN)NC(=O)[C@H](CC(C)C)NC(=O)[C@H](Cc1ccccc1)NC(=O)[C@H](CO)NC(=O)[C@H](CCCCN)NC(=O)[C@H](Cc1c[nH]c2ccccc12)NC(=O)[C@H](CCCCN)NC(C)=O)[C@@H](C)O)[C@@H](C)O)C(C)C)[C@@H](C)O)C(=O)N[C@@H](CO)C(=O)N[C@@H](CO)C(N)=O [A12L/A23L] |  |  |  |  |  |  |  |  |  |  |  | Hemolytic activity MHC (human erythrocytes): 15.6 µg/mL; MIC (μg/ml) CP 204 ([1]; Pseudomonas aeruginosa clinical isolate CP 204): 7.8 µg/mL (≈ 2.54 µM); MIC (μg/ml) M 2 ([1]; Pseudomonas aeruginosa clinical isolate M 2): 31.3 µg/mL (≈ 10.2 µM); MIC (μg/ml) PA 14 ([1]; Pseudomonas aeruginosa clinical isolate PA 14): 62.5 µg/mL (≈ 20.3 µM); MIC (μg/ml) PAK ([1]; Pseudomonas aeruginosa clinical isolate PAK): 15.6 µg/mL (≈ 5.07 µM); MIC (μg/ml) PAO 1 ([1]; Pseudomonas aeruginosa clinical isolate PAO 1): 15.6 µg/mL (≈ 5.07 µM); MIC (μg/ml) WR 5 ([1]; Pseudomonas aeruginosa clinical isolate WR 5): 250.0 µg/mL (≈ 81.3 µM); MIC (μg/ml) GM ([1]; geometric mean of the MIC values for the 6 Pseudomonas aeruginosa clinical isolates): 31.2 µg/mL (≈ 10.1 µM)
NLD: V681 analog with D-Leu at position 13 (non-polar face) (KWKSFLKTFKSA[dL]KTVLHTALKAISS-NH2; not fully specified) | 45.10 min | 43.03 min | 46.37 min | 3.02 min | 89% | −7,350 deg · cm^2 · dmol^−1 | −25,750 deg · cm^2 · dmol^−1 | 25% |  |  |  | ΔtR (X-NVL) (min) 5° C. ([2]; non-polar face substitutions, retention time difference relative to native peptide V681 (NVL) at 5° C., relative hydrophobicity): -3.00 min; ΔtR (X-NVL) (min) 80° C. ([2]; non-polar face substitutions, retention time difference relative to native peptide V681 (NVL) at 80° C., relative hydrophobicity): -2.80 min
PAL: V681 analog with L-Ala at position 11 (polar face) (KWKSFLKTFKAAVKTVLHTALKAISS) | 48.25 min | 46.63 min | 50.57 min | 4.15 min | 95% | −13,600 deg · cm^2 · dmol^−1 | −27,600 deg · cm^2 · dmol^−1 | 47% | +0.45 min | 0.15 min | 0.80 min | 
PKL: V681 analog with L-Lys at position 11 (polar face) (KWKSFLKTFKKAVKTVLHTALKAISS) | 46.38 min | 43.89 min | 47.90 min | 3.17 min | 94% | −5,950 deg · cm^2 · dmol^−1 | −27,350 deg · cm^2 · dmol^−1 | 21% | -2.29 min | -1.72 min | -1.94 min | 
PLL: V681 analog with L-Leu at position 11 (polar face) (KWKSFLKTFKLAVKTVLHTALKAISS) | 48.78 min | 47.51 min | 51.23 min | 4.33 min | 99% | −10,850 deg · cm^2 · dmol^−1 | −28,550 deg · cm^2 · dmol^−1 | 37% |  | 0.68 min | 1.68 min | 
